For the experiment, the system named is cells of the human embryonic stem cell line H1 differentiated to stage 5. Briefly: Immunostaining for insulin protein expression at the end of Stage 5. The settings on record: 50 or 100 ng/ml for three days at stage 5, immunostaining vs control; FIG. 2, FIG. 3. The experiment is classed as cell-based. How it is done: Cells of the human embryonic stem cell line H1 (hESC H1, passage 40) were seeded as single cells at 1×10^5 cells/cm^2 on MATRIGEL™ (1:30 dilution; BD Biosciences, NJ)-coated dishes in mTeSR®1 media supplemented with 10 μM of Y27632. Forty-eight hours post seeding, cultures were washed in incomplete PBS (phosphate buffered saline without Mg or Ca). Cultures were differentiated into pancreatic endoderm/endocrine lineages as follows: • a) Stage 1 (Definitive Endoderm (DE)—3 days): Cells were cultured for one day in stage 1 media (see Example 1, above). Cells were then cultured for an additional day in MCDB-131 medium supplemented with 0.1% fatty acid-free BSA, 0.0012 g/ml sodium bicarbonate, 1× GlutaMax™, 4.5 mM D-Glucose, 100 ng/ml GDF8, and 0.1 μM MCX compound. […]

B1: Ephrin-A3: Ephrin ligand protein from R & D systems (protein, UniProt P52797 23-214, looked up)
Ephrin-A3: QGPGGALGNRHAVYWNSSNQHLRREGYTVQVNVNDYLDIYCPHYNSSGVGPGAGPGPGGGAEQYVLYMVSRNGYRTCNASQGFKRWECNRPHAPHSPIKFSEKFQRYSAFSLGYEFHAGHEYYYISTPTHNLHWKCLRMKVFVCCASTSHSGEKPVPTLPQFTMGPNVKINVLEDFEGENPQVPKLEKSISG
In the case of B1, the “protein expression of insulin” value is given as “significantly enhanced”.

For the origin of these results see patent US10208288B2, “Differentiation of human embryonic stem cells into pancreatic endocrine cells” (Janssen Biotech, Inc., priority 2012, dated 2019).
